Laboratory results taken from patent US20210046117A1.
Like-named read-outs stand apart in the source and are kept apart here.

Key:
[1] = target: CD19 on CD19+ Raji B cells (UniProt P15391); experiment: cell-based or functional assay
[2] = target: CD19 on CD19+ Raji B cells (UniProt P15391); experiment: cell-based or functional assay; remark: listed apart in the source

Chain of UniProt P15391 (P15391 20-556 limits assumed): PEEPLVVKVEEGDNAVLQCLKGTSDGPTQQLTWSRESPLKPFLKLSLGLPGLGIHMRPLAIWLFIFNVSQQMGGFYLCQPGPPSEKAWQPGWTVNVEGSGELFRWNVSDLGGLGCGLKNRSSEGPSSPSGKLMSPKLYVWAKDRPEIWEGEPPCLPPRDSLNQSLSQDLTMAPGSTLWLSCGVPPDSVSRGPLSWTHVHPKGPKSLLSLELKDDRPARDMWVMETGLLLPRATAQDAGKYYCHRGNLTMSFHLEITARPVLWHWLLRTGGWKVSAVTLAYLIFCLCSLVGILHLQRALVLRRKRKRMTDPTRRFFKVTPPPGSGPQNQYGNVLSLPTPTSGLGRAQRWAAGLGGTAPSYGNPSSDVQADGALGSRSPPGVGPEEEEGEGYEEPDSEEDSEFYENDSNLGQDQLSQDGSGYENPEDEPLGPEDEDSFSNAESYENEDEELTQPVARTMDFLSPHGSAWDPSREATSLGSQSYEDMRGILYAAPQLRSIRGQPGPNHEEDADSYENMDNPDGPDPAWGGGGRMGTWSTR

activated cells in the population (CD25 and CD69 activation markers, flow cytometry, 24h co-culture) [1]: 0.9 to 84.8%
activated cells in the population (CD25 and CD69 activation markers, flow cytometry, 24h co-culture) [2]: 3.9 to 12.1%
Substance: anti-CD19 CAR (anti-CD19 CAR cassette as described in WO 2012/079000) (receptor)
